Experiment [1] deals with recombinant human P-selectin (human) (UniProt P16109).
For experiment [2] the target is unchanged. This is another data set of the same source.

Like-named read-outs stand apart in the source and are kept apart here.

Chain of UniProt P16109 (P16109 42-771 limits assumed): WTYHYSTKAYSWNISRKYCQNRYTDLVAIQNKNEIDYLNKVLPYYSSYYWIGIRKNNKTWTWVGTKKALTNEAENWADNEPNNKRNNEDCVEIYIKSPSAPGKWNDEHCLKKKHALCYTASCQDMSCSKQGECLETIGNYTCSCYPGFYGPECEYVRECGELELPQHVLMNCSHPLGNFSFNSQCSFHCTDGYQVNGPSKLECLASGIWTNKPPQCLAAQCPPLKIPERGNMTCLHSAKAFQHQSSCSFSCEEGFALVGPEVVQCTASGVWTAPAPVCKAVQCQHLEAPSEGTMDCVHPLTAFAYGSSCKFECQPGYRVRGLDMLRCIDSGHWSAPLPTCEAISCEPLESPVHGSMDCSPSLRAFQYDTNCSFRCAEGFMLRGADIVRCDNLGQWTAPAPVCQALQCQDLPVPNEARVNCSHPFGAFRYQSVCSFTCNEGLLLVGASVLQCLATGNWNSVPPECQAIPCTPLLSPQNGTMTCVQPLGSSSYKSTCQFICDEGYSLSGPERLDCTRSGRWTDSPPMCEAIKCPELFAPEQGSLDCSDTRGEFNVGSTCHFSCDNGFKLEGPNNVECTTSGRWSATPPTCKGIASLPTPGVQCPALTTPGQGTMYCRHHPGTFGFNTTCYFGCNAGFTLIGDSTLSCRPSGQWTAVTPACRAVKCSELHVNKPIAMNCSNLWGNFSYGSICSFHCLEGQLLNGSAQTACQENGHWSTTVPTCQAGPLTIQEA

B1: LH (Crizanlizumab) scFv synNotch receptor (receptor, part only; not given: Myc tag, Notch core, Gal4, part only)
chain, part: DIQMTQSPSSLSASVGDRVTITCKASQSVDYDGHSYMNWYQQKPGKAPKLLIYAASNLESGVPSRFSGSGSGTDFTLTISSLQPEDFATYYCQQSDENPLTFGGGTKVEIKRGGGGSGGGGSGGGGSQVQLVQSGAEVKKPGASVKVSCKVSGYTFTSYDINWVRQAPGKGLEWMGWIYPGDGSIKYNEKFKGRVTMTVDKSTDTAYMELSSLRSEDTAVYYCARRGEYGNYEGAMDYWGQGTLVTVSS
As for B1, in experiment [1], the Freq. of mCherry+ (BFP+ cells) at 1 ng/uL rhp-selectin worked out at 2.1%, the Freq. of mCherry+ (BFP+ cells) at 10 ng/uL rhp-selectin came out at 13.2%, the Freq. of mCherry+ (BFP+ cells) at 25 ng/uL rhp-selectin is 15.6% and the Freq. of mCherry+ (BFP+ cells) at 50 ng/uL rhp-selectin worked out at 15.8%. For the same molecule, the Freq. of mCherry+ (BFP+ cells) at 100 ng/uL rhp-selectin in experiment [1] was 12.1%.

B2: HL (Crizanlizumab) scFv synNotch receptor (receptor, part only; not given: Myc tag, Notch core, Gal4, part only)
chain, part: QVQLVQSGAEVKKPGASVKVSCKVSGYTFTSYDINWVRQAPGKGLEWMGWIYPGDGSIKYNEKFKGRVTMTVDKSTDTAYMELSSLRSEDTAVYYCARRGEYGNYEGAMDYWGQGTLVTVSSGGGGSGGGGSGGGGSDIQMTQSPSSLSASVGDRVTITCKASQSVDYDGHSYMNWYQQKPGKAPKLLIYAASNLESGVPSRFSGSGSGTDFTLTISSLQPEDFATYYCQQSDENPLTFGGGTKVEIKR
B2: in experiment [2], the Freq. of mCherry+ (BFP+ cells) at 1 ng/uL rhp-selectin was 16.2%, the Freq. of mCherry+ (BFP+ cells) at 10 ng/uL rhp-selectin came to 33%, the Freq. of mCherry+ (BFP+ cells) at 25 ng/uL rhp-selectin was 32.2% and the Freq. of mCherry+ (BFP+ cells) at 50 ng/uL rhp-selectin was 25.4%. Besides, the Freq. of mCherry+ (BFP+ cells) at 100 ng/uL rhp-selectin in experiment [2] was determined as 18.4%.

These data come from patent US20260242732A1.
